Test results taken from patent US20140120555A1 (PIERRE FABRE MEDICAMENT, published 2014).

Assays:
[1] = molecular target: T1, Recombinant mouse FcγRI [CD64], Gln25-Pro297 with C-terminal 6-His tag (mouse, UniProt P26151 25-297); assay: SPR (Biacore X): m-FcγRI injected over c515H7 Mab immobilized on a CM4 sensorchip; Langmuir model
T1 construct: range 25-297; Soluble form bought from R&D Systems; also called m-FcγRI
T1 sequence: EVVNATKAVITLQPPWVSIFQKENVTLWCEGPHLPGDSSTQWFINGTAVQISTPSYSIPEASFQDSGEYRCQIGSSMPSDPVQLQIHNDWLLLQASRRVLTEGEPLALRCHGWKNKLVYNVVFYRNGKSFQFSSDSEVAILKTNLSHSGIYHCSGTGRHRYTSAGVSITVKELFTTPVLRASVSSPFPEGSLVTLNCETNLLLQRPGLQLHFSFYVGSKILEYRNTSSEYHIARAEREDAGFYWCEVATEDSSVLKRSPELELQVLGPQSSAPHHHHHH
Method: (§1) 2017 RU of c515H7 Mab were immobilized using the amine coupling kit chemistry on the second flowcell (FC2) of a CM4 sensorchip. The first flowcell (FC1) activated by NHS and EDC mixture and des-activated by ethanolamine served as the reference surface to check and subtract the non specific interaction between the analyte (Fc gamma receptors) and the sensorchip matrix.
(§2) The kinetic experiments were carried out at 25° Celsius at a flow rate of 30 μl/min. The HBS-EP buffer was used either as the running buffer or for the preparation of analyte solutions. The analyte solutions were injected during 90 seconds (association phase) with a 90 seconds delay (dissociation phase). An injection of running buffer as analyte was used as a double reference. All the sensorgrams were corrected by this double reference sensorgram.
(§3) After each injection of the analyte, the sensorchip was regenerated by injection of 20 mM NaOH, 75 mM NaCl solution.

[2] = molecular target: T1, Recombinant mouse FcγRI [CD64], …; assay: SPR (Biacore X): m-FcγRI injected over c515H7 Mab immobilized on a CM4 sensorchip; heterogeneous ligand model, minor component (19%)
Method: as §1, §2, §3

[3] = molecular target: T2, Recombinant mouse FcγRIII [CD16], Ala31-Thr215 with C-terminal 10-His tag (mouse, UniProt P08508 31-215); assay: SPR (Biacore X): m-FcγRIII injected over c515H7 Mab immobilized on a CM4 sensorchip; heterogeneous ligand model, minor component (1%)
T2 construct: Soluble form bought from R&D Systems; also called m-FcγRIII
T2 sequence: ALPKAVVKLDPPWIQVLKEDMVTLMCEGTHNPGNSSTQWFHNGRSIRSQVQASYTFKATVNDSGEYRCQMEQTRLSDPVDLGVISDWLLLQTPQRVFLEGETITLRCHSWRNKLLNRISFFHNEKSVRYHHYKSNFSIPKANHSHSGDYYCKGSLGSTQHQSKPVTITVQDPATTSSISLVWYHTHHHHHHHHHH
Method: as §1, §2, §3

[4] = molecular target: T2, Recombinant mouse FcγRIII [CD16], …; assay: SPR (Biacore X): m-FcγRIII injected over c515H7 Mab immobilized on a CM4 sensorchip; heterogeneous ligand model, major component (99%)
Method: as §1, §2, §3

[5] = molecular target: T3, Recombinant human FcγRIIIA variant V [CD16a], Gln17-Gln208 with C-terminal 6-His tag (human, UniProt P08637 17-208); assay: SPR (Biacore X): h-FcγRIIIA injected over c515H7 Mab immobilized on a CM4 sensorchip; heterogeneous ligand model, minor component (19%)
T3 construct: range 17-208; 'variant V' is given without a position, so no substitution is written; also called h-FcγRIIIA
Method: as §1, §2, §3

[6] = molecular target: T1, Recombinant mouse FcγRI [CD64], …; assay: SPR (Biacore X), heterogeneous ligand model, m-FcγRI as analyte
Method: as §1, with “1964” for “2017”, “hz515H7VH1D76NVL2” for “c515H7”
as §2
(§4) According to this model, the hz515H7VH1D76NVL2 Mab Fc domain may be regarded as a mixture of two components.

[7] = molecular target: T1, Recombinant mouse FcγRI [CD64], …; assay: SPR (Biacore X), Mab on CM4 chip, m-FcγRI as analyte, heterogeneous ligand model, major component
Method: as §1, with “1964” for “2017”, “hz515H7VH1D76NVL2” for “c515H7”
as §2, §4

[8] = molecular target: T2, Recombinant mouse FcγRIII [CD16], …; assay: SPR (Biacore X), Mab on CM4 chip, m-FcγRIII as analyte, Langmuïr model; higher of the two Langmuïr-fit values
Method: as §1, with “1964” for “2017”, “hz515H7VH1D76NVL2” for “c515H7”
as §2
Using the Langmuïr model the constant of dissociation was around 17 and 18 nM.

[9] = molecular target: T3, Recombinant human FcγRIIIA variant V …; assay: SPR (Biacore X): h-FcγRIIIA injected over hz515H7VH1D76NVL2 Mab immobilized on a CM4 sensorchip; heterogeneous ligand model, minor component (21%)
Method: as §1, with “1964” for “2017”, “hz515H7VH1D76NVL2” for “c515H7”
as §2
Sensorgrams obtained with h-FcγRIIIA [FIG. 16] were clearly not fitted by the Langmuïr model (Chi2/Rmax>20%). […] According to this model, the hz515H7VH1D76NVL2 Mab Fc domain may be regarded as a mixture of two components. […] According to the literature, the heterogeneity observed with h-FcγRIIIA was probably linked to the glycosylation heterogeneity on the Mab Fc domain.

T3 sequence (P08637 other isoform, or with tags, fused parts or gaps mutant limits assumed, form in doubt): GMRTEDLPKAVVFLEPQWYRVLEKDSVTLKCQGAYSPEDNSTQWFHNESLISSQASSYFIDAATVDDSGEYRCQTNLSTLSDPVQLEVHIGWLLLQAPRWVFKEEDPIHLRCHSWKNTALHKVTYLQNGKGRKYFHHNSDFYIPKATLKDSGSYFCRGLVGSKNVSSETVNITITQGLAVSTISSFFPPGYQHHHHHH

B1: chimeric antibody c515H7 (antibody, human IgG1, kappa)
heavy: not shown
light: DIVMSQSPSSLAVSAGEKVTMSCKSSQSLFNSRTRKNYLAWYQQKPGQSPKLLIYWASARDSGVPARFTGSGSETYFTLTISRVQAEDLAVYYCMQSFNLRTFGGGTKLEIKRTVAAPSVFIFPPSDEQLKSGTASVVCLLNNFYPREAKVQWKVDNALQSGNSQESVTEQDSKDSTYSLSSTLTLSKADYEKHKVYACEVTHQGLSSPVTKSFNRGEC
notes: Human IgG1/kappa constant domains; also called c515H7 Mab; chimeric 515H7
In the case of B1, the Kd [1] is reported as 106 nM, the koff [1] is reported as 0.0661 s⁻¹ and the kon [1] is reported as 622000 M⁻¹ s⁻¹. The Kd [2] was 34.6 nM, the koff [2] was 0.0387 s⁻¹ and the kon [2] was 1.12e+06 M⁻¹ s⁻¹. The Kd [3] was 67 nM, the koff [3] was 0.0024 s⁻¹ and the kon [3] was 40000 M⁻¹ s⁻¹. The Kd [4] was 20.9 nM, the koff [4] was 0.00446 s⁻¹ and the kon [4] was 213000 M⁻¹ s⁻¹. It also gave a Kd [5] of 34.7 nM, a koff [5] of 0.0124 s⁻¹ and a kon [5] of 357000 M⁻¹ s⁻¹.

B2: humanized antibody Hz515H7 VH1 D76N VL2 (antibody, human IgG1, kappa)
heavy: not shown
light: DIVMTQSPSSLAVSLGERATMSCKSSQSLFNSRTRKNYLAWYQQKPGQSPKLLIYWASARDSGVPARFTGSGSETYFTLTISRVQAEDLAVYYCMQSFNLRTFGQGTKVEIKRTVAAPSVFIFPPSDEQLKSGTASVVCLLNNFYPREAKVQWKVDNALQSGNSQESVTEQDSKDSTYSLSSTLTLSKADYEKHKVYACEVTHQGLSSPVTKSFNRGEC
notes: IgG1/kappa; also called hz515H7VL2; hz515H7-1
B2 was tested, and the “fold association rate, major versus minor component” value [6] was 5.7 fold, the “fold dissociation rate, major versus minor component” value [6] was 4.8 fold and the Kd [7] was 75 to 80 nM. It also gave a Kd [8] of about 18 nM, a Kd [9] of 29.3 nM and a koff [9] of 0.0155 s⁻¹. It also gave a kon [9] of 529000 M⁻¹ s⁻¹.
